Test results reported in patent publication US20200031952A1 (CLOSED JOINT STOCK COMPANY BIOCAD, published 2020).

T1: monkey IL-17A (monkey)
T1 chain: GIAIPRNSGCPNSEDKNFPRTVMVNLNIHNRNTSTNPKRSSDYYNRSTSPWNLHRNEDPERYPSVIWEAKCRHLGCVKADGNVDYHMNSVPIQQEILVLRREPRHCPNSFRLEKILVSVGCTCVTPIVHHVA

T2: rat IL-17A (rat, UniProt Q61453 18-150, limits assumed)
T2 sequence (looked up): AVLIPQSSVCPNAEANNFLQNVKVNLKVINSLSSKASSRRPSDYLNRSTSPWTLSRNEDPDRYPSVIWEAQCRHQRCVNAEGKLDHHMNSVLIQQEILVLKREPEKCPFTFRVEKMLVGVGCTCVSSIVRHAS


Experiments:
[1] = molecular target: T3, human IL-17A (human, UniProt Q16552 24-155, limits assumed); experiment: cell-based or functional assay
T3 construct: Used as analyte in the Octet tests, as immobilised antigen in ELISA and as cytokine in the HT1080 cell test; also called human recombinant IL-17A; Interleukin 17

[2] = molecular target: T3, human IL-17A; experiment: BLI (OctetRed 96), BCD109 on AR2G sensors, 1:1 model; analyte 34,3 nM (heading: 'Human ... IL17 Fc'); Full R^2 0,744563
Description: (§1) The test was conducted at a temperature of 30° C. and using PBS with 0.1% Tween-20 and 0.1% BSA as a working buffer.
(§2) Binding curves (after subtracting a reference signal) were analyzed using Octet Data Analysis software (Version 7.0) in accordance with the standard procedure and using 1:1 interaction model.

[3] = molecular target: T1, monkey IL-17A; experiment: BLI (OctetRed 96), BCD109 on AR2G sensors, 1:1 model; analyte 34,4 nM (heading: 'Macaque ... IL17 Fc'); Full R^2 0,061979
Description: as §1, §2

[4] = molecular target: T2, rat IL-17A; experiment: BLI (OctetRed 96), BCD109 immobilised on AR2G sensors, IL-17A as analyte
Description: as §1, §2

[5] = molecular target: T1, monkey IL-17A; experiment: BLI (OctetRed 96), BCD109 on AR2G sensors, 1:1 model; analyte 17,2 nM (heading: 'Macaque ... IL17 Fc'); Full R^2 0,753773
Description: as §1, §2

[6] = molecular target: T3, human IL-17A; experiment: BLI (OctetRed 96), BCD109 on AR2G sensors, 1:1 model; analyte 68,6 nM (heading: 'Human ... IL17 Fc'); Full R^2 0,383582
Description: as §1, §2

[7] = molecular target: T1, monkey IL-17A; experiment: BLI (OctetRed 96), BCD109 on AR2G sensors, 1:1 model; analyte 68,7 nM (heading: 'Macaque ... IL17 Fc'); Full R^2 0,672159
Description: as §1, §2

[8] = molecular target: T3, human IL-17A; experiment: BLI (OctetRed 96), BCD109 on AR2G sensors, 1:1 model; analyte 17,1 nM (heading: 'Human ... IL17 Fc'); Full R^2 0,775434
Description: as §1, §2

Molecule | IC50, picomole as defined by the cell IL6 test [1] [picomole] | Kd [2] [pM] | Kd [3] [pM] | binding result [4] | Kd [5] [pM] | Kd [6] [pM] | Kd [7] [pM] | Kd [8] [pM]
AIN457 (anti-IL-17A antibody by Novartis) | 1100 | – | – | – | – | – | – | –
BCD109 (antibody, V domains shown, IgG1, transiently expressed; also called BCD109 antibody; BCD109 candidate; copies: 2 + 2) VH: QVQLVQSGGGLVQAGGSLRLSCAASGGTFATSPMGWLRQAPGKGTEFVAAISPSGGDRIYADSVKGRFTISRDNAGYFIYLQMNSLKPEDTAVYYCAVRRRFDGTSYYTGDYDSWGQGTLVTVSS VL: EIVLTQSPGTLSLSPGERATLSCRASQSVSSSYLAWYQQKPGQAPRLLIYDASSRATGIPDRFSGSGSGTDFTLTISRLEPEDFAVYYCQQYSYSPVTFGQGTKVEIKR | – | < 1 | < 1 | no binding (tested: 126 nM to 2 nM titrated) | < 1 | < 1 | < 1 | 4.4
